We go through five molecules from article PMC8062120, “Molecular basis of F-actin regulation and sarcomere assembly via myotilin” (PLoS Biology, 2021).

The target of data set [1] is F-actin (rabbit skeletal muscle actin, polymerized) (rabbit, UniProt P68135 1-377). As to the kind of experiment: co-sedimentation; F-actin co-sedimentation, conditions B2 (PIPES pH 6.8, 100 mM NaCl); fixed 6 μM myotilin fragment in 20 μl mixed with pre-polymerized F-actin (0 to 60 μM) in 20 μl; one site-specific binding fit; apparent Kd. To be noted: both partners purified.

Data set [2] deals with the molecule itself. Description: SAXS; batch SAXS at high or comparable concentrations; Ig1Ig2^250–444 up to 14.12 mg/ml, Ig1Ig2^250–498 up to 42.8 mg/ml, Ig1Ig2^220–452 up to 52 or 36.6 mg/ml, R405K up to 45.5 mg/ml; 20 mM HEPES, 150 mM NaCl, 5% glycerol, 1 mM DTT, pH 7.4 (one 220–452 set in 20 mM MES, 200 mM NaCl, pH 6.0); mass from I0, Rg, Dmax, P(r); monomer to dimer.
Data set [3] concerns the target T1, Full-length myotilin with N-terminal thioredoxin tag (Trx-MYOT) (human, UniProt Q9UBF9 1-498).
T1 construct: myotilin, human, full length; source: E. coli B834 (DE3), purified (HisTrap FF, SEC); not shown: Trx, N-terminal, kept
T1 sequence (looked up): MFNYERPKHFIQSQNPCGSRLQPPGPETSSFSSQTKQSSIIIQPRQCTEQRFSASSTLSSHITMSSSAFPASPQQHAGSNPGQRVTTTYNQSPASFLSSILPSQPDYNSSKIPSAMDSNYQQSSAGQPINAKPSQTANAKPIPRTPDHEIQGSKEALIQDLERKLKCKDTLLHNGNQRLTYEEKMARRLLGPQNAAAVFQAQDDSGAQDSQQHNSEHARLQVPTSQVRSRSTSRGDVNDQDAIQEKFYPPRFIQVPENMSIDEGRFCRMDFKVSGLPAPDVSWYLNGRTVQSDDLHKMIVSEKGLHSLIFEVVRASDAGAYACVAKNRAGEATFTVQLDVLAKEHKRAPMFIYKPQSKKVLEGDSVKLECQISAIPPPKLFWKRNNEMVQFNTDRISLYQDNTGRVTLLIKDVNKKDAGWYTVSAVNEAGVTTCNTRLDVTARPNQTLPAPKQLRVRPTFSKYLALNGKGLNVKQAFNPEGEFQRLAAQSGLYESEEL
As to the kind of experiment: ITC; 25°C; 400 μM ACTN2-EF14 injected into the cell with 20 μM Trx-MYOT or Trx-MYOT-NEECK; 20 mM Hepes, 400 mM NaCl, 250 mM arginine, 5% glycerol, pH 7.5. Conditions: both partners purified. In general terms: ITC needs no label: the signal is the heat of the interaction.

B1: Myotilin Ig1Ig2^185–454 (domain or fragment)
chain: MARRLLGPQNAAAVFQAQDDSGAQDSQQHNSEHARLQVPTSQVRSRSTSRGDVNDQDAIQEKFYPPRFIQVPENMSIDEGRFCRMDFKVSGLPAPDVSWYLNGRTVQSDDLHKMIVSEKGLHSLIFEVVRASDAGAYACVAKNRAGEATFTVQLDVLAKEHKRAPMFIYKPQSKKVLEGDSVKLECQISAIPPPKLFWKRNNEMVQFNTDRISLYQDNTGRVTLLIKDVNKKDAGWYTVSAVNEAGVTTCNTRLDVTARPNQTLPAPKQL
notes: limits determined by intact protein mass spectrometry of the final product; source: E. coli, purified (GSTrap FF, TEV cleavage, IMAC and GSTrap flow-through, SEC)
In the case of B1, in data set [1], the Kd worked out at 3000 ± 600 nM.

B2: Myotilin Ig1Ig2^220–452 (domain or fragment, human, UniProt Q9UBF9 220-452, looked up)
chain: LQVPTSQVRSRSTSRGDVNDQDAIQEKFYPPRFIQVPENMSIDEGRFCRMDFKVSGLPAPDVSWYLNGRTVQSDDLHKMIVSEKGLHSLIFEVVRASDAGAYACVAKNRAGEATFTVQLDVLAKEHKRAPMFIYKPQSKKVLEGDSVKLECQISAIPPPKLFWKRNNEMVQFNTDRISLYQDNTGRVTLLIKDVNKKDAGWYTVSAVNEAGVTTCNTRLDVTARPNQTLPAPK
notes: Dimer only at high concentration; monomeric at low concentrations; source: E. coli, purified (HisTrap, HRV-3C cleavage, SEC); not shown: His tag (from the HisTrap column)
Regarding B2, the “stoichiometry N” value in data set [2] was found to be 2.

B3: α-actinin-2 EF14 (ACTN2-EF14), CAMD encoding all 4 EF-hands (domain or fragment)
chain: DAKGITQEQMNEFRASFNHFDRRKNGLMDHEDFRACLISMGYDLGEAEFARIMTLVDPNGQGTVTFQSFIDFMTRETADTDTAEQVIASFRILASDKPYILAEELRRELPPDQAQYCIKRMPAYSGPGSVPGALDYAAFSSALYGESDL
modifications: His6-tag removed with HRV-3C protease; limits not printed (S3 Table), so taken by convention from just before EF-hand 1 (753) to the C-terminus
Turning to B3, the Kd in data set [3] stood at 4200 ± 1200 nM.

B4: Myotilin Ig1Ig2^250–498 (domain or fragment)
chain: PRFIQVPENMSIDEGRFCRMDFKVSGLPAPDVSWYLNGRTVQSDDLHKMIVSEKGLHSLIFEVVRASDAGAYACVAKNRAGEATFTVQLDVLAKEHKRAPMFIYKPQSKKVLEGDSVKLECQISAIPPPKLFWKRNNEMVQFNTDRISLYQDNTGRVTLLIKDVNKKDAGWYTVSAVNEAGVTTCNTRLDVTARPNQTLPAPKQLRVRPTFSKYLALNGKGLNVKQAFNPEGEFQRLAAQSGLYESEEL
notes: source: E. coli B834 (DE3), purified (HisTrap, HRV-3C cleavage, Resource S cation exchange, SEC); not shown: His tag (from the HisTrap column)
Take B4: in data set [1], the Kd amounted to 1200 ± 200 nM.

B5: Myotilin Ig1Ig2^185–498 (domain or fragment)
chain: MARRLLGPQNAAAVFQAQDDSGAQDSQQHNSEHARLQVPTSQVRSRSTSRGDVNDQDAIQEKFYPPRFIQVPENMSIDEGRFCRMDFKVSGLPAPDVSWYLNGRTVQSDDLHKMIVSEKGLHSLIFEVVRASDAGAYACVAKNRAGEATFTVQLDVLAKEHKRAPMFIYKPQSKKVLEGDSVKLECQISAIPPPKLFWKRNNEMVQFNTDRISLYQDNTGRVTLLIKDVNKKDAGWYTVSAVNEAGVTTCNTRLDVTARPNQTLPAPKQLRVRPTFSKYLALNGKGLNVKQAFNPEGEFQRLAAQSGLYESEEL
notes: source: E. coli C41 (DE3), purified (HisTrap FF, HRV-3C cleavage, StrepTrap HP, SEC)
Turning to B5, the Kd in data set [1] was found to be 2000 ± 400 nM.

What is called stoichiometry N is the number of molecules, sites or subunits per partner or assembly.
